From PMC4028264

What was measured:
Assay in all cases: native gel or EMSA
[1] = biological target: HIV-1 strain R2 gp140 fused to a modified GCN4 trimerization domain (HIV-1 strain R2 | not stated)
[2] = biological target: HIV-1 strain R2 gp140 with a 15 amino acid flexible linker between gp120 and the gp41 ectodomain, fu (HIV-1 strain R2 | not stated)
[3] = biological target: HIV-1 strain R2 soluble gp140 envelope glycoprotein (uncleaved) (HIV-1 strain R2)

**Q.** Which stoichiometry N [1] does the source give for “HIV-1 strain R2 gp140 fused to a modified GCN4 trimerization domain (domain or fragment)” here?
**A.** 3

**Q.** With “HIV-1 strain R2 gp140 with a 15 amino acid flexible linker between gp120 and the gp41 ectodomain, fu (domain or fragment)” as the substance, how does the stoichiometry N [2] read?
**A.** 3

**Q.** What does the source list for “HIV-1 strain R2 soluble gp140 envelope glycoprotein (uncleaved) (domain or fragment)”?
**A.** percent dimer [3]: > 90%; stoichiometry N [3]: 2
